According to article PMC10080726 (Molecular cell, 2023):
No end group written: not given here.

What was measured:
[1] = test system: neddylated CRL2^KLHDC2; assay: Pulse-chase ubiquitylation of substrates or KLHDC2; type: biochemical, human
[2] = test system: KLHDC2-EloBC; assay: Native gel electrophoresis, substrate; type: binding, human
[3] = test system: CUL2-RBX1; assay: CUL2-RBX1 neddylation pulse-chase; type: biochemical, human; details: tetramer supplied with substrate, without CAND1
[4] = biological target: T1, KLHDC2 SBD (Homo sapiens, UniProt Q9Y2U9); assay: SPR binding to immobilised KLHDC2 SBD; details: for Kd: 10xHis-KLHDC2 SBD, pH 7.4, 20°C, triplicate, 1-site model, substrates (Figure S1C)
T1 sequence (Q9Y2U9 15-361): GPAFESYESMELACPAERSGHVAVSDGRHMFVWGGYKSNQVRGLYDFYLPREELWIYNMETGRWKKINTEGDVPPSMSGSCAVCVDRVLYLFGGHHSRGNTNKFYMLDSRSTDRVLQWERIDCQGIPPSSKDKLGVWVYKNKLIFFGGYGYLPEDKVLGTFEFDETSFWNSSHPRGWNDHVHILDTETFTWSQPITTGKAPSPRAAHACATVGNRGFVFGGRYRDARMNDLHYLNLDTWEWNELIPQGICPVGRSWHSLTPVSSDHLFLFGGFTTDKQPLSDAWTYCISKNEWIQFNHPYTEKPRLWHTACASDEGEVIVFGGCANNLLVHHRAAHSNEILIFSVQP

[5] = biological target: KLHDC3-EloBC complex (full-length KLHDC3, EloB, EloC) (UniProt Q9BQ90)
[6] = biological target: 10xHis-KLHDC2 SBD (residues 15-361) (human) (UniProt Q9Y2U9); assay: SPR
[7] = biological target: KLHDC2-EloBC substrate receptor complex (full-length WT KLHDC2, EloB, EloC) (UniProt Q9Y2U9); assay: SEC
[8] = biological target: KLHDC2-EloBC substrate receptor complex (full-length WT KLHDC2, EloB, EloC) (UniProt Q9Y2U9); assay: AUC
[9] = biological target: T2, KLHDC2 substrate-binding domain (SBD), residues 15-361 (human, UniProt Q9Y2U9 15-361); assay: crystal structure
T2 sequence (looked up): T1 sequence (Q9Y2U9 15-361)

[10] = biological target: T3, 10xHis-KLHDC2 SBD (residues 15-361) (human, UniProt Q9Y2U9 15-361); assay: SPR
T3 sequence (looked up): T1 sequence (Q9Y2U9 15-361)

[11] = test system: CRL2^KLHDC2; assay: Pre-steady state rapid quench flow ubiquitylation; type: biochemical, human; details: KLHDC2 -KK, UBE2R2, one-hour equilibration of substrate with E3, triplicate
[12] = biological target: the molecule itself; assay: crystal structure
[13] = test system: CUL2 in 293T cells; assay: FLAG immunoprecipitation of KLHDC2, associated CUL2 neddylation state; type: cell-based, human; details: FLAG-KLHDC2, no treatment
[14] = test system: KLHDC2 in U2OS cells; assay: K48-ubiquitylation of FLAG-KLHDC2 in U2OS cells; type: cell-based, human; details: Bortezomib 1 μM, five hours, K48 antibody
[15] = test system: NEDD8 in U2OS cells; assay: Steady-state NEDD8 levels in U2OS cells; details: ectopic expression in KLHDC2 KO U2OS
[16] = test system: KLHDC2 in U2OS cells; assay: Steady-state KLHDC2 protein levels in U2OS cells
[17] = test system: USP1 N-fragment in U2OS cells; assay: Steady-state USP1 N-fragment levels in U2OS cells; details: exogenous rescue in KLHDC2 KO U2OS, n=3 technical replicates

Molecule: KLHDC2-EloBC: full-length KLHDC2-EloBC substrate receptor complex, tetrameric
- auto-ubiquitylation of KLHDC2 ([1]; UB~UBCH5B, WT or C-degron mutants, with or without SELK): subject to auto-ubiquitylation
- FAM-SELK binding (in words) ([2]; native gel, 2.5 μM KLHDC2, pH 7.5): a single band appeared
- rate of CUL2-RBX1 neddylation (in words) [3]: greatest

Molecule: GFP-RIC8B: C-terminal 23 amino-acids of RIC8B appended to the C-terminus of GFP ({GFP}-TITPLEEALNQYSVIEETSSDTD)
- Kd [4]: 460 nM

Molecule: NQRFGSNNTSGS-OH [WT KLHDC2-derived peptide]
- affinity lower than physiological substrates ([4]; vs peptides from physiological substrates USP1 and GFP-RIC8B): 3–5 fold

Molecule: KLHDC3-EloBC complex (full-length KLHDC3, EloB, EloC) (from UniProt Q9BQ90 1-382; Q15370 1-104; Q15369 17-112)
- stoichiometry N [5]: 4

Molecule: CUL2-RBX1: CUL2-RBX1 complex
- required pre-incubation time for KLHDC2-FAM-SELK complex formation ([2]; with CUL2-RBX1): < 3 h

Molecule: WT KLHDC2-derived peptide (C-terminus of KLHDC2) used in SPR
- Kd [6]: 1400 nM

Molecule: KLHDC2-EloBC substrate receptor complex (full-length WT KLHDC2, EloB, EloC) (from UniProt Q9Y2U9 1-406; Q15370 1-104; Q15369 17-112)
- Kd [7]: 0.18 to 0.26 nM
- Kd [8]: 0.15 nM

Molecule: NQRFGSNNTSGS (peptide, UniProt Q9Y2U9 395-406, looked up) [12mer peptide derived from the C-terminus of KLHDC2]
- binding result [9]: binds

B1: USP1 fragment (residues 592-671) (domain or fragment, UniProt O94782 592-671, looked up)
chain: GHYTASVKVTDLNSLELDKGNFVVDQMCEIGKPEPLNEEEARGVVENYNDEEVSIRVGGNTQPSKVLNKKNVEAIGLLGG
- Kd [10]: 264 nM

B2: FAM-USP1: fluorescein-labeled USP1 fragment (protein)
chain: B1 chain
modifications: fluorescein on the amino-terminus (sortase-mediated ligation of FAM-(PEG)5-LPETGG peptide); left off: GST, N-terminal, cleaved
- complex formation with KLHDC2-EloBC (in words) ([2]; 20-fold molar excess of ligand, 4-hour pre-incubation): only minimal interaction

B3: USP1: USP1 fragment, residues 592–671 (protein)
chain: B1 chain
modifications: left off: GST, N-terminal, cleaved
- Kd [4]: 260 nM
- pre-incubation required for maximal ubiquitylation (in words) ([1]; KLHDC2 -KK): required no pre-incubation
- *UB transfer to substrate (in words) ([1]; UB~UBE2R2, neddylated CRL2^KLHDC2 (WT), 0.6 μM substrate, pH 7.5, n=3): preferentially promotes *UB ligation to SELK or USP1
- rate of substrate modification kobs [11]: 0.21 s⁻¹

B4: KLHDC2, full length (the KLHDC2 chain of the KLHDC2-EloBC crystal structure) (natural protein, human, UniProt Q9Y2U9 1-406, looked up)
chain: MADGNEDLRADDLPGPAFESYESMELACPAERSGHVAVSDGRHMFVWGGYKSNQVRGLYDFYLPREELWIYNMETGRWKKINTEGDVPPSMSGSCAVCVDRVLYLFGGHHSRGNTNKFYMLDSRSTDRVLQWERIDCQGIPPSSKDKLGVWVYKNKLIFFGGYGYLPEDKVLGTFEFDETSFWNSSHPRGWNDHVHILDTETFTWSQPITTGKAPSPRAAHACATVGNRGFVFGGRYRDARMNDLHYLNLDTWEWNELIPQGICPVGRSWHSLTPVSSDHLFLFGGFTTDKQPLSDAWTYCISKNEWIQFNHPYTEKPRLWHTACASDEGEVIVFGGCANNLLVHHRAAHSNEILIFSVQPKSLVRLSLEAVICFKEMLANSWNCLPKHLLHSVNQRFGSNNTSGS
- binding result [12]: binds

B5: WT KLHDC2: FLAG-tagged WT KLHDC2 expressed in cells; KLHDC2 in CRL2^KLHDC2 (protein)
chain: B4 chain
modifications: left off: FLAG, N-terminal, kept
- auto-ubiquitylation of KLHDC2 ([1]; no substrate, UB~UBE2R2): rapidly ubiquitylated
- co-precipitated CUL2 neddylation state (in words) [13]: co-precipitated a mixture of unmodified and neddylated CUL2
- ubiquitylation of KLHDC2 (in words) [14]: more ubiquitylated than their monomeric counterparts
- NEDD8 levels (in words) [15]: reduced the levels of unconjugated NEDD8
- exogenous expression relative to endogenous KLHDC2 ([16]; U2OS): roughly 10 -fold
- KLHDC2 protein level (in words) ([16]; stable FLAG-KLHDC2 in KLHDC2 KO U2OS): significantly lower than that of CΔ6 and -KK monomers
- reduction of USP1 N-fragment levels [17]: ~ 4 fold
